Common to all, as to test: purified protein
Holding throughout (details): 50 mM CHES pH 9.5, 10 mM DTT, 37 °C

Series [1] concerns N=C(N)NCCCC[C@H](N)C(=O)O.
Series [2] concerns N=C(N)NCCC[C@H](N)C(=O)NO.
Series [3] concerns N=C(NO)NCCC[C@H](N)C(=O)O.
Series [4] concerns N=C(N)NOCC[C@H](N)C(=O)O.
The test system of series [5] is CCOC(=O)[C@H](CCCNC(=N)N)NC(=O)c1ccccc1.

These results are taken from publication PMC2752837.

For the substance “truncated PAD (peptidylarginine deiminase, 43-amino acid N-terminal deletion) (Porphyromonas gingivalis W83)”, the Km result is reported as “(4.7 ± 0.8)×10^3 µM” in series [1]; “(6.9 ± 0.5)×10^3 µM” in series [2]; “(1.5 ± 0.5)×10^3 µM” in series [3]; “(6 ± 1)×10^3 µM” in series [4]; “(18 ± 1)×10^3 µM” in series [5]. Moreover, the kcat turned out to be 0.11 s⁻¹ in series [1], 0.15 s⁻¹ in series [2], 0.0046 s⁻¹ in series [3] and 0.0052 s⁻¹ in series [4]. Besides, the kcat/Km in series [1] amounted to 24 M⁻¹ s⁻¹; in series [3] it was 3 M⁻¹ s⁻¹; in series [4], 0.93 M⁻¹ s⁻¹; in series [5], 0.99 M⁻¹ s⁻¹.

Usually kcat stands for the maximal rate divided by the concentration of active sites. For orientation: kcat/Km means the turnover number divided by the Michaelis constant.
